Measurements from patent US20200317768A1 (published 2020).

T1: cynomolgus monkey FcγRIIa2 extracellular domain, His-tagged (cynomolgus monkey)
T1 construct: also called cyno FcγRIIa2; cynoFcgRIIa2
T1 chain: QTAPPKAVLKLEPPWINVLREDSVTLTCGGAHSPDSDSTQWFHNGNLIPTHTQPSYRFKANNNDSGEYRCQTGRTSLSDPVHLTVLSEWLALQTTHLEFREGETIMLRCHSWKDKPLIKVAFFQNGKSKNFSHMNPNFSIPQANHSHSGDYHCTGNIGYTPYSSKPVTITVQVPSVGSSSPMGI

T2: cynomolgus monkey FcγRIIb extracellular domain, His-tagged (cynomolgus monkey)
T2 construct: also called cyno FcγRIIb; cynoFcγRIIb
T2 chain: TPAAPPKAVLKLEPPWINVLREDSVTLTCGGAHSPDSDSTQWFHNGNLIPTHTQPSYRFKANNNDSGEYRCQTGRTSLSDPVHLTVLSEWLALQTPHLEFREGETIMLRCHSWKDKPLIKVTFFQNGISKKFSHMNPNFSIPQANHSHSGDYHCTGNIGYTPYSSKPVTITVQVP

T3: cynomolgus monkey FcγRIIIaS extracellular domain, His-tagged (cynomolgus monkey, UniProt Q8SPW2 21-206 at identity 1.00))
T3 construct: also called cyno FcγRIIIaS; cynoFcγRIIIaS
T3 chain: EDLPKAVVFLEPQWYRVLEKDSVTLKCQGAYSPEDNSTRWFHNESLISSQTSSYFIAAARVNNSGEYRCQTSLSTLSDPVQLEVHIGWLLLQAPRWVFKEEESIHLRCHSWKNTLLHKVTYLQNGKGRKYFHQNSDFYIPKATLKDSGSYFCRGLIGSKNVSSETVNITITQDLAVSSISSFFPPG

T4: human FcγRIIaR extracellular domain, His-tagged (human, UniProt P12318 34-217)
T4 construct: also called human FcγRIIa (type R); FcgRIIaR
T4 chain: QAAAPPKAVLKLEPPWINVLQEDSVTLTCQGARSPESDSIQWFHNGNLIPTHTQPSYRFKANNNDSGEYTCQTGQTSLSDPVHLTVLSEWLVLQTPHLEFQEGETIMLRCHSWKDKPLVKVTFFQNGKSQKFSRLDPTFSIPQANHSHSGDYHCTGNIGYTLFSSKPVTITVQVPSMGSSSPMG

T5: cynomolgus monkey FcγRIIa1 extracellular domain, His-tagged (cynomolgus monkey)
T5 construct: also called cyno FcγRIIa1; cynoFcgRIIa1
T5 chain: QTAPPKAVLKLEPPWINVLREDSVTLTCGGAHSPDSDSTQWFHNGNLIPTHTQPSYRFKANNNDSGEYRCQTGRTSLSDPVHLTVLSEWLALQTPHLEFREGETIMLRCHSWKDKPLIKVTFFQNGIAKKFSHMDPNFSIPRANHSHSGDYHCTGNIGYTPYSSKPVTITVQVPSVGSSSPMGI

T6: human FcγRIIb extracellular domain, His-tagged (human, UniProt P31994 43-217)
T6 construct: also called FcgRIIb (human)
T6 sequence: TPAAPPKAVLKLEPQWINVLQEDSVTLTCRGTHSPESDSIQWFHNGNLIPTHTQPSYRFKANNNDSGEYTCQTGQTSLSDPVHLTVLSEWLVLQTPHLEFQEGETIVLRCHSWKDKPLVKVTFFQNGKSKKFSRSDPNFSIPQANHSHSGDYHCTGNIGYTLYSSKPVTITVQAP

T7: cynomolgus monkey FcγRIIa3 extracellular domain, His-tagged (cynomolgus monkey)
T7 construct: also called cyno FcγRIIa3; cynoFcgRIIa3
T7 chain: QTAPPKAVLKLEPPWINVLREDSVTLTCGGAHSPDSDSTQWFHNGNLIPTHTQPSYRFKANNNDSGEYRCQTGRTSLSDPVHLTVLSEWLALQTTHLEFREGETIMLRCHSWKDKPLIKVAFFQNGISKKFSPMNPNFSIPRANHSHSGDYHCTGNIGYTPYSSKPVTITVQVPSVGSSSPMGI

T8: human FcγRIIaH extracellular domain, His-tagged (human, UniProt P12318 34-217)
T8 construct: also called human FcγRIIa (type H); FcgRIIaH
T8 sequence: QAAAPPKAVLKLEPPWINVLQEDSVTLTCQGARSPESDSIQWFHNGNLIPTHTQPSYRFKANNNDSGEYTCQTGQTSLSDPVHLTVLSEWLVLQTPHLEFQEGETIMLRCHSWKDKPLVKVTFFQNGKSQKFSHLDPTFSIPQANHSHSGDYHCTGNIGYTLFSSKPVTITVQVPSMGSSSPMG


Columns and labels:
Assay in all cases: SPR, antibody captured, FcgR analyte
[1] = molecular target: T1, cynomolgus monkey FcγRIIa2 …
Method: (§1) The kinetic analysis of interactions between these antibodies and FcγR was carried out using BIACORE® T200 or BIACORE® 4000 (GE Healthcare). HBS-EP+ (GE Healthcare) was used as the running buffer, and the measurement temperature was set to 25° C. A chip produced by immobilizing Protein A. Protein A/G or mouse anti-human IgG kappa light chain (BD Biosciences) onto a Series S Sensor Chip CM4 or CM5 (GE Healthcare) by the amine-coupling method was used. […] After the measurement, the antibody captured on the chip was washed off by allowing reaction with 10 mM glycine-HCl, pH1.5 and 25 mM NaOH so that the chip was regenerated and used repeatedly. The sensorgrams obtained as measurement results were analyzed by the 1:1 Langmuir binding model using the BIACORE® Evaluation Software to calculate the binding rate constant ka (L/mol/s) and dissociation rate constant kd (l/s), and the dissociation constant KD (mol/L) was calculated from these values. […] Regarding such interactions, KD values were calculated using the following 1:1 binding model described in BIACORE® T100 Software Handbook BR1006-48 Edition AE.
(§2) The behavior of interacting molecules according to the 1:1 binding model on BIACORE® can be described by Equation 1: Req=C·R max/(KD+C)+RI, wherein, Req is a plot of steady-state binding levels to analyte concentration. C is concentration, RI is bulk refractive index contribution in the sample, and Rmax is analyte binding capacity of the surface. When this equation is rearranged, KD can be expressed as Equation 2: KD=C·Rmax/(Req−RI)−C. KD can be calculated by substituting the values of Rmax, RI, and C into Equation 1 or Equation 2. From the current measurement conditions, RI=0, C=2 μmol/L can be used.

[2] = molecular target: T2, cynomolgus monkey FcγRIIb extracellular …
Method: as §1, §2

[3] = molecular target: T3, cynomolgus monkey FcγRIIIaS …
Method: as §1, §2

[4] = molecular target: T4, human FcγRIIaR extracellular domain, …
Method: as §1, §2

[5] = molecular target: T5, cynomolgus monkey FcγRIIa1 …
Method: as §1, §2

[6] = molecular target: T9, human FcγRIIIaV extracellular domain, His-tagged (human, UniProt P08637 17-208)
T9 construct: also called FcgRIIIaV
Method: as §1, §2

[7] = molecular target: T6, human FcγRIIb extracellular domain, …
Method: as §1, §2

[8] = molecular target: T7, cynomolgus monkey FcγRIIa3 …
Method: as §1, §2

[9] = molecular target: T8, human FcγRIIaH extracellular domain, …
Method: as §1, §2

T9 sequence (P08637 17-208 F176V): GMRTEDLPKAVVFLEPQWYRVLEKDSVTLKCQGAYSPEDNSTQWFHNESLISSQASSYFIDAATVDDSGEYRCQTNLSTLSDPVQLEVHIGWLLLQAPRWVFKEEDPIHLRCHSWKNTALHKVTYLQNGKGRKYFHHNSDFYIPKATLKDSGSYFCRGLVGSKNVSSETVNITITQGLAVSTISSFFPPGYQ

| Binder | Kd [1] | Kd [2] | Kd [3] | Kd [4] | Kd [5] | Kd [6] | Kd [7] | Kd [8] | Kd [9] |
| --- | --- | --- | --- | --- | --- | --- | --- | --- | --- |
| MS_M103205H795-SG1/M103202L889-SK1 (antibody, human IgG1, kappa, Parent antibody of the Fc variants; heavy chain constant region SG1, light chain M103202L889-SK1; also called MS1032LO06-SG1) heavy: not shown light: DIVMTQSPATLSLSPGERATLSCTSSQSVYHANWLSWFQQKPGQPPKLLIYWASTLAYGVPSRFSGSGSGTDFTLTISSLQPEDAATYYCAGGYGGGRYAFGQGTKVEIKRTVAAPSVFIFPPSDEQLKSGTASVVCLLNNFYPREAKVQWKVDNALQSGNSQESVTEQDSKDSTYSLSSTLTLSKADYEKHKVYACEVTHQGLSSPVTKSFNRGEC | 5100 nM | 1800 nM | 360 nM | 1100 nM | 3200 nM | 810 nM | 4600 nM | 17000 nM | 690 nM |
| M103205H795-MY006/M103202L889-SK1 (antibody, human IgG1, kappa, Substitution put into M103205H795-SG1) heavy: not shown light: DIVMTQSPATLSLSPGERATLSCTSSQSVYHANWLSWFQQKPGQPPKLLIYWASTLAYGVPSRFSGSGSGTDFTLTISSLQPEDAATYYCAGGYGGGRYAFGQGTKVEIKRTVAAPSVFIFPPSDEQLKSGTASVVCLLNNFYPREAKVQWKVDNALQSGNSQESVTEQDSKDSTYSLSSTLTLSKADYEKHKVYACEVTHQGLSSPVTKSFNRGEC | 1500 nM | 920 nM | 320 nM | 1800 nM | 2000 nM | 730 nM | 2300 nM | 3600 nM | 1300 nM |
| M103205H795-MY008/M103202L889-SK1 (antibody, human IgG1, kappa, Substitution put into M103205H795-SG1) heavy: not shown light: DIVMTQSPATLSLSPGERATLSCTSSQSVYHANWLSWFQQKPGQPPKLLIYWASTLAYGVPSRFSGSGSGTDFTLTISSLQPEDAATYYCAGGYGGGRYAFGQGTKVEIKRTVAAPSVFIFPPSDEQLKSGTASVVCLLNNFYPREAKVQWKVDNALQSGNSQESVTEQDSKDSTYSLSSTLTLSKADYEKHKVYACEVTHQGLSSPVTKSFNRGEC | 3700 nM | 1700 nM | 370 nM | 1800 nM | 4200 nM | 630 nM | 2600 nM | 24000 nM | 1600 nM |
| M103205H795-MY010/M103202L889-SK1 (antibody, human IgG1, kappa, Substitution put into M103205H795-SG1) heavy: not shown light: DIVMTQSPATLSLSPGERATLSCTSSQSVYHANWLSWFQQKPGQPPKLLIYWASTLAYGVPSRFSGSGSGTDFTLTISSLQPEDAATYYCAGGYGGGRYAFGQGTKVEIKRTVAAPSVFIFPPSDEQLKSGTASVVCLLNNFYPREAKVQWKVDNALQSGNSQESVTEQDSKDSTYSLSSTLTLSKADYEKHKVYACEVTHQGLSSPVTKSFNRGEC | 5000 nM | 2000 nM | 220 nM | 1800 nM | 3900 nM | 220 nM | 9100 nM | 18000 nM | 1200 nM |
| M103205H795-MY013/M103202L889-SK1 (antibody, human IgG1, kappa, Substitution put into M103205H795-SG1) heavy: not shown light: DIVMTQSPATLSLSPGERATLSCTSSQSVYHANWLSWFQQKPGQPPKLLIYWASTLAYGVPSRFSGSGSGTDFTLTISSLQPEDAATYYCAGGYGGGRYAFGQGTKVEIKRTVAAPSVFIFPPSDEQLKSGTASVVCLLNNFYPREAKVQWKVDNALQSGNSQESVTEQDSKDSTYSLSSTLTLSKADYEKHKVYACEVTHQGLSSPVTKSFNRGEC | 4700 nM | 2000 nM | 330 nM | 5100 nM | 4500 nM | 410 nM | 3700 nM | 52000 nM | 2600 nM |
| M103205H795-MY014/M103202L889-SK1 (antibody, human IgG1, kappa, Substitution put into M103205H795-SG1) heavy: not shown light: DIVMTQSPATLSLSPGERATLSCTSSQSVYHANWLSWFQQKPGQPPKLLIYWASTLAYGVPSRFSGSGSGTDFTLTISSLQPEDAATYYCAGGYGGGRYAFGQGTKVEIKRTVAAPSVFIFPPSDEQLKSGTASVVCLLNNFYPREAKVQWKVDNALQSGNSQESVTEQDSKDSTYSLSSTLTLSKADYEKHKVYACEVTHQGLSSPVTKSFNRGEC | 2500 nM | 1500 nM | 400 nM | 960 nM | 2500 nM | 690 nM | 4800 nM | 12000 nM | 520 nM |
| M103205H795-MY016/M103202L889-SK1 (antibody, human IgG1, kappa, Substitution put into M103205H795-SG1) heavy: not shown light: DIVMTQSPATLSLSPGERATLSCTSSQSVYHANWLSWFQQKPGQPPKLLIYWASTLAYGVPSRFSGSGSGTDFTLTISSLQPEDAATYYCAGGYGGGRYAFGQGTKVEIKRTVAAPSVFIFPPSDEQLKSGTASVVCLLNNFYPREAKVQWKVDNALQSGNSQESVTEQDSKDSTYSLSSTLTLSKADYEKHKVYACEVTHQGLSSPVTKSFNRGEC | 3400 nM | 1700 nM | 230 nM | 940 nM | 2900 nM | 370 nM | 2900 nM | 3200 nM | 850 nM |
| M103205H795-MY037/M103202L889-SK1 (antibody, human IgG1, kappa, Substitution put into M103205H795-SG1) heavy: not shown light: DIVMTQSPATLSLSPGERATLSCTSSQSVYHANWLSWFQQKPGQPPKLLIYWASTLAYGVPSRFSGSGSGTDFTLTISSLQPEDAATYYCAGGYGGGRYAFGQGTKVEIKRTVAAPSVFIFPPSDEQLKSGTASVVCLLNNFYPREAKVQWKVDNALQSGNSQESVTEQDSKDSTYSLSSTLTLSKADYEKHKVYACEVTHQGLSSPVTKSFNRGEC | 4500 nM | 2400 nM | 200 nM | 910 nM | 3800 nM | 370 nM | 2600 nM | 9600 nM | 1100 nM |
